Data from patent US7910330.

Biological target: native Pf AMA-1 on P. falciparum parasites (strain not specified) (Plasmodium falciparum)
Test: cell-based or functional assay

For rat monoclonal antibody 4G2, the inhibition of invasion was 50 to 60%.
